Molecular target: light-harvesting complex II (LHCII) in thylakoids of the Arabidopsis thaliana stn7 stn8 double mutant

B1: recombinant OsPSTOL1 (OsPSTOL1rec) (protein)
chain: MLLCQRASKNAPRIESFLQKQETSNPKRYTLSEVKRMTKSFAHKLGRGGFGTVYKGSLPDGREIAVKMLKDTKGDGEEFINEVAGISKTSHINVVNLLGFSLQGSKRALIYEYMPNGSLDRYSFGDSSVQGDNTLSWDRLFNIIVGIARGLEYLHCHCNIRIVHFDIKPQNILLAQDFCPKISDFGLSKLCHLKESRISINGLRGTPGYIAPEVFSRQYGSASSKSDVYSYGMVVLEMAGAKKNINVSTGSSSKYFPQWLYDNLDQFCCPTGEISSQTTDLVRKMVVVGLWCIQLVPTDRPSMREVLEMLESNGRDLPLPPKGLHHHHHH
- phosphorylation of LHCII, in vitro phosphorylation assay with phosphothreonine-specific immunoblot: recombinant OsPSTOL1 protein restores phosphorylation of the light-harvesting complex II (LHCII) in the Arabidopsis stn7 stn8 double mutant (lane 4)

Reference: patent US20150082475
